Tested on: CCNc1nc(Cl)nc(NC(C)C)n1
Test: cells, lysate or membranes
Conditions: apparent, whole uncoated E. coli cells (free cells), PBS (0.1 M, pH 7.4), room temperature, 20 min, 2.5 mg/mL cells, ATZ 1-20 mg/L

Substance: atrazine chlorohydrolase (AtzA) (Pseudomonas sp. ADP)
- Km: 89.12 ± 29.48 µM

Source: publication PMC8588562, “Layer-by-Layer Encapsulation of Herbicide-Degrading Bacteria for Improved Surface Properties and Compatibility in Soils” (Polymers, 2021)
